In the supplement of paper PMC12667976:

B1: library; numbered along this chain (parent)
chain: MATDAALRRLLRLHRTEIAVAVDSAFPLLHALADHDVVPEDKFQETLHLKEKEGCPQAFHALLSWLLTQDSTAILDFWRVLFKDYNLERYGRLQPILDSFPKDVDLSQPRKGRKPPAVPKALVPPPRLPTKRKASEEARAAAPAALTPRGTASPGSQLKAKPPKKPESSAEQQRLPLGNGIQTMSASVQRAVAMSSGDVPGARGAVEGILIQQVFESGGSKKCIQVGGEFYTPSKFEDSGSGKNKARSSSGPKPLVRAKGAQGAAPGGGEARLGQQGSVPAPLALPSDPQLHQKNEDECAVCRDGGELICCDGCPRAFHLACLSPPLREIPSGTWRCSSCLQATVQEVQPRAEEPRPQEPPVETPLPPGLRSAGEEVRGPPGEPLAGMDTTLVYKHLPAPPSAAPLPGLDSSALHPLLCVGPEGQQNLAPGARCGVCGDGTDVLRCTHCAAAFHWRCHFPAGTSRPGTGLRCRSCSGDVTPAPVEGVLAPSPARLAPGPAKDDTASHEPALHRDDLESLLSEHTFDGILQWAIQSMARPAAPFPS

Variants of: B1
Assay: AIRE transcriptional activation functional score (insulin promoter-GFP; nonsense median 0, synonymous median 1) (normalised score); higher = higher AIRE activity (more reporter activation)
Conditions: with insulin promoter-GFP reporter in HEK293
Protocol: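 Deep mutational scan of full-length human AIRE (codon-optimized cDNA, DT-POPCode NNN libraries over three regions) integrated at a Bxb1 landing pad in HEK293 cells carrying an insulin core promoter-GFP reporter at a Flp-In site. Cells were sorted for the top 10% GFP about 14 days after transfection. Variant frequency log-ratios (select vs non-select, TileSeq) were rescaled so that the nonsense median is 0 and the synonymous median is 1, then averaged over biological replicates.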

AIRE transcriptional activation functional score: each site, then its substitutions
R316: E 1.28; G 1.33; Q 1.05; Y 1.36; S 1.19; L 0.804; T 1.06; I 1.26; V 0.904; W 1.28; D 1.42; K 1.03; H 1.36; P 1.14; M 1.04; F 0.43; C 1.22; N 0.525; A 0.77
P315: A 0.558; C 0.985; F 0.835; D 1.08; T 0.854; M 1.22; W 2.51; K 0.481; S 1.14; V 1.12; H 0.985; N 1.1; G 0.618; Q 1.05; L 0.924; I 1; R 0.972; E 0.802; Y 0.976
L320: A 1.19; E 1.22; S 0.896; N 0.948; M 1.03; G 0.879; V 0.976; K 0.922; R 1.16; W 0.685; H 0.847; T 1.13; P 0.869; Y 1.09; F 1.19; I 0.729; Q 0.88; C 0.84; D 1.14
F318: T 1.31; V 0.874; Q 1.31; H 1.42; G 1.39; D 1.02; N 1.45; M 1.54; L 1.05; R 1.47; A 0.96; K 1.39; P 1.21; S 1.19; C 1.32; E 1.34; Y 1.07; W 0.907; I 1.12
C314: V 1.13; N 1.03; W 0.709; I 1.08; F 0.96; K 1; L 0.847; S 1.07; H 0.752; Q 0.418; D 0.933; T 1.14; R 0.842; E 0.893; M 1.12; P 1.1; Y 0.725; G 0.862
A321: K 1.09; P 1.3; S 1.01; H 0.857; V 1.05; Y 0.541; D 0.763; W 1.14; M 1.58; N 1.06; L 0.961; C 0.948; E 0.854; R 0.843; I 1.33; F 1.1; G 1.21; Q 1.11; T 0.918
C322: Q 1.2; P 1.25; N 0.919; R 0.999; I 0.327; G 1.24; S 1.41; H 1.5; D 1.77; F 0.737; K 1.21; T 1.21; M 1.1; L 0.951; A 1.16; E 1.77
A317: T 0.717; S 0.689; W 1.53; E 1.37; N 0.865; K 0.241; L 1.01; Y 0.503; V 0.416; F 0.813; D 1.25; P 1.23; G 0.974; H 1.06; M 0.781; Q -0.307; I 0.854; R 0.922; C 1.28
H319: D 1.24; N 1.26; G 1.28; F 0.514; Y 0.961; K 1.15; I 0.263; E 1.39; V 0.662; W 0.996; L 0.424; S 1.31; Q 1.44; P 1.4; A 1.16; M 0.921; C 1.43; R 1.03; T 1.38
